This note sets out measurements from US20200199214A1 (Hoffmann-La Roche, published 2020).

One test addresses T1, Human VEGF121-His (human, UniProt P15692-9 27-147).
T1 construct: not shown: His tag
T1 sequence (looked up): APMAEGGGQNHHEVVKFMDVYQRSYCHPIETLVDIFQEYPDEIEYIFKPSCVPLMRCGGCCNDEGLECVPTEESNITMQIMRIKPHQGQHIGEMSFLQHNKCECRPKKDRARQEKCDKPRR
Kind of test: SPR, VEGF121-His captured via anti-His antibody, Fab injected, single cycle kinetics, 1:1 Langmuir fit. The method, then:
An anti-His capturing antibody (GE Healthcare 28995056) was immobilized to a Series S Sensor Chip C1 (GE Healthcare 29104990) using standard amine coupling chemistry resulting in a surface density of approximately 500 resonance units (RU). As running and dilution buffer, HBS-P+(10 mM HEPES, 150 mM NaCl pH 7.4, 0.05% Surfactant P20) was used. Human VEGF121-His was captured to the surface with resulting ligand densities of approximately 10 and 20 RU, respectively. A dilution series of the bispecific anti-VEGF/anti-IL-1beta Fab fragment (1.2-100 nM, 1:3 dilution) was successively injected for 90 s each, dissociation was monitored for 3600 s at a flow rate of 30 μl/min (single cycle kinetics). The surface was regenerated by injecting 10 mM Glycine pH 1.5 for 60 s. Bulk refractive index differences were corrected by subtracting blank injections and by subtracting the response obtained from the control flow cell without captured human VEGF121. Curve fitting was performed using the 1:1 Langmuir binding model within the Biacore evaluation software. To provide more robust fitting, the Multiple Rmax option was chosen for global fitting using both ligand densities.
(§1) Binding kinetics to VEGF and IL-1beta for the candidate antibodies were assessed as described in Example 3 using the indicated bispecific anti-VEGF/anti-IL-1beta Fab fragments (amino acid sequence as illustrated in Table 3). For comparison, antigen binding kinetics of prior art anti-VEGF/anti-IL-1beta antibody 0032, a full length IgG antibody, as disclosed in WO2016/075034 are depicted.

Test [1] deals with T2, human IL-1 beta (PeproTech 200-01B) (human, UniProt P01584 117-269).
T2 construct: As printed it covers only the N-terminal part of the precursor, so it was not used; also called huIL-1 beta; IL1β
Description: SPR, Fab captured via anti-Fab antibody, human IL-1beta injected, 1:1 Langmuir fit. The method, then:
An anti-Fab capturing antibody (GE Healthcare 28958325) was immobilized to a Series S Sensor Chip C1 (GE Healthcare 29104990) using standard amine coupling chemistry resulting in a surface density of approximately 500 resonance units (RU). The bispecific anti-VEGF/anti-IL-1beta Fab fragment was captured to the surface with resulting capture levels of approximately 20 RU. A dilution series ranging from 0.74 to 60 nM (1:3 dilution) of either human IL-1 beta (PeproTech 200-01B) or cynomolgus IL-1 beta (Sino Biological 90010-CNAE) was injected for 90 s, dissociation was monitored for at least 600 s at a flow rate of 30 μl/min. The surface was regenerated by two consecutive injections of 10 mM Glycine pH 2.1 for 60 s each. Bulk refractive index differences were corrected by subtracting blank injections and by subtracting the response obtained from the control flow cell without captured bispecific anti-VEGF/anti-IL-1beta Fab fragment. Curve fitting was performed using the 1:1 Langmuir binding model within the Biacore evaluation software.
as §1

Test [2] has as its target T2, human IL-1 beta (PeproTech 200-01B). Kind of test: SPR competition: Fab (from 200 nM, 1:2 dilutions) preincubated with 50 nM IL-1beta, injected over immobilised IL-1bR1 (competitor); without VEGF. The method, then:
(§2) As running and dilution buffer, HBS-P+(10 mM HEPES, 150 mM NaCl pH 7.4, 0.05% Surfactant P20) was used.
(§3) For assessing VEGF-receptor binding inhibition, a final concentration of 200 nM of R07200394 or 400 nM antibody 0032 was preincubated with 50 nM VEGF121. For assessing IL-1beta-receptor binding inhibition, a final concentration of 200 nM of R07200394 or 200 nM antibody 0032 was with preincubated with 50 nM IL-1beta. Samples were diluted (1:2) in the corresponding 50 nM VEGF121 or IL-1beta solution.
(§4) The antibody/ligand mixtures were injected onto the VEGFR2 or IL-1R1 surface for 60 s at a flow rate of 5 μl/min. After a dissociation phase for 60 s, the VEGFR2 surface was regenerated by injecting 5 mM NaOH for 60 s, whereas the IL-1R1 surface was regenerated by injecting 10 mM Glycine pH 3.0 followed by 5 mM NaOH for 60 s each. Bulk refractive index differences were corrected by subtracting blank injections and by subtracting the response obtained from the blank control flow cell. For evaluation, the binding response 5 seconds after inject end was taken. The derived response in RU was transformed to a binding response relative to the initial signal corresponding to the ligand(s) without antibody. IC50 values were calculated using a 4 parameter logistic model (XLfit, ID Business Solutions Ltd.)

For a further test, the target named is T3, human VEGF121 (human, UniProt P15692-9 27-147).
T3 construct: No tag is stated for these preparations; Kept apart from VEGF121-His; also called HuVEGF121
T3 sequence (looked up): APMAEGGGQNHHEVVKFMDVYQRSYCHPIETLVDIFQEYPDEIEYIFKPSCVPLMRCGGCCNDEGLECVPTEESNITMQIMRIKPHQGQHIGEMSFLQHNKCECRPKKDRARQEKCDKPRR
Description: SPR competition: Fab (from 200 nM, 1:2 dilutions) preincubated with 50 nM VEGF121, injected over immobilised hVEGFR2 (competitor); without IL-1beta. The method, then: as §2, §3, §4

Test [3] concerns the target T2, human IL-1 beta (PeproTech 200-01B). Kind of test: SPR competition: Fab preincubated with 50 nM IL-1beta, injected over immobilised IL-1bR1 (competitor); in presence of VEGF. The method, then:
as §2, §3, §4

B1: bispecific anti-VEGF/anti-IL-1beta Fab fragment RO7200394 (Fab, V domains shown)
VH: DEQLVESGGGLVKPGGSLRLSCAAEGMVFKWNDMSWVRQAPGKGLEWVGSISKKGDHKYLNTKFIGRFTISRDNEKDTLYLQMNSLRAEDTAVYYCAKDVGFFDIWGQGTLVTVSS
VL: AIYMHQEPSSLSASVGDRVTITCHGSYWLSSLVAWYQQKPGKAPKLLIYDAKYKHLGVPSRFSGSKEDQEFTLTISSLQPEDFATYYCQQYRYHPYTFGHGTKVEIKR
notes: same variable domains as 1HVL12.85; also called R07200394
In the test with Human VEGF121-His, B1 returned a Kd of 0.006 nM, a koff of 1.63e-05 s⁻¹, a kon of 2.85e+06 M⁻¹ s⁻¹ and a t½ of 11.8 h. For the same molecule, in test [1], the Kd is 0.021 nM, the koff came to 0.000102 s⁻¹, the kon was determined as 4.73e+06 M⁻¹ s⁻¹ and the “t 1/2” value worked out at 1.9 h. Besides, the IC50 in test [2] turned out to be 22 nM. This molecule displayed an IC50 in the test with human VEGF121 of 44 nM. In addition, in test [3], the IC50 worked out at 24 nM.
